The source of these data is the Immune Epitope Database (IEDB).

Bounds are passed on as bounds.

For one assay, the target named is HLA-A*02:50. Kind of assay: IEDB peptide-MHC binding, purified MHC/competitive/fluorescence; filed as Kd, often an IC50 or EC50 that approximates it; ≥ and ≤ were set here for values at or beyond the usual limits of such assays. The note with it: source organism: Yersinia pestis Nepal516.
For the next assay, the target named is HLA-B*58:01. In words: IEDB peptide-MHC binding, purified MHC/direct/fluorescence; filed as Kd, often an IC50 or EC50 that approximates it; ≥ and ≤ were set here for values at or beyond the usual limits of such assays. The note with it: source organism: Yersinia pestis.
The target in assay [1] is HLA-A*02:12. The assay is described as above. To be noted: source organism: Yersinia pestis CA88-4125.
The target in assay [2] is HLA-A*02:03. The assay is described as above. To be noted: source organism: Yersinia pestis CA88-4125.
In another assay the target is HLA-B*44:02. The assay is described as above. To be noted: source organism: Yersinia pestis.
In another assay the target is HLA-A*11:01. The assay is described as above. The note with it: source organism: Yersinia pestis.
A further assay addresses HLA-B*08:01. Described as above. The note with it: source organism: Yersinia pestis CA88-4125.
Assay [3] deals with HLA-A*02:16. Described as above. The note with it: source organism: Yersinia pestis CA88-4125.
Another assay has as its target HLA-B*08:02. Described as above. The note with it: source organism: Yersinia pestis CA88-4125.
In a further assay the target is HLA-B*27:05. Described as above. The note with it: source organism: Yersinia pestis.
A further assay deals with HLA-B*40:01. The description is as above. To be noted: source organism: Yersinia pestis.
The target in assay [4] is HLA-B*15:01. Described as above. To be noted: source organism: Yersinia pestis.
Assay [5] concerns the target HLA-A*02:11. Described as above. The note with it: source organism: Yersinia pestis CA88-4125.
For assay [6], the target named is HLA-A*02:01. Described as above. To be noted: source organism: Yersinia pestis.
The target in assay [7] is HLA-A*69:01. Described as above. The note with it: source organism: Yersinia pestis.
Assay [8] concerns the target HLA-A*02:19. Described as above. The note with it: source organism: Yersinia pestis CA88-4125.
The target of another assay is HLA-A*02:06. The description is as above. The note with it: source organism: Yersinia pestis CA88-4125.
The target of a further assay is HLA-A*01:01. The description is as above. The note with it: source organism: Yersinia pestis.
The target in assay [9] is HLA-A*03:01. Described as above. The note with it: source organism: Yersinia pestis.
Another assay deals with HLA-B*07:02. The description is as above. The note with it: source organism: Yersinia pestis.
The target in assay [10] is HLA-A*31:01. Described as above. The note with it: source organism: Yersinia pestis.
Assay [11] has as its target HLA-A*02:12. Kind of assay: IEDB peptide-MHC binding, purified MHC/competitive/fluorescence; filed as Kd, often an IC50 or EC50 that approximates it; ≥ and ≤ were set here for values at or beyond the usual limits of such assays. To be noted: source organism: Entamoeba histolytica HM-1:IMSS.
Assay [12] concerns the target HLA-A*02:03. The description is as above. The note with it: source organism: Entamoeba histolytica HM-1:IMSS.
For assay [13], the target named is HLA-A*02:16. The assay is described as above. To be noted: source organism: Entamoeba histolytica HM-1:IMSS.
The target in another assay is HLA-B*46:01. Described as above. The note with it: source organism: Entamoeba histolytica HM-1:IMSS.
A further assay addresses HLA-B*57:01. The description is as above. To be noted: source organism: Entamoeba histolytica HM-1:IMSS.
Another assay has as its target HLA-A*25:01. The assay is described as above. To be noted: source organism: Entamoeba histolytica HM-1:IMSS.
The target in the next assay is HLA-A*29:02. Described as above. The note with it: source organism: Entamoeba histolytica HM-1:IMSS.
Another assay deals with HLA-A*23:01. The description is as above. To be noted: source organism: Entamoeba histolytica HM-1:IMSS.
A further assay concerns the target HLA-B*27:03. The description is as above. The note with it: source organism: Entamoeba histolytica HM-1:IMSS.
The target of another assay is HLA-A*26:01. The assay is described as above. To be noted: source organism: Entamoeba histolytica HM-1:IMSS.
In assay [14] the target is HLA-B*15:01. The description is as above. The note with it: source organism: Entamoeba histolytica HM-1:IMSS.
Assay [15] addresses HLA-A*02:11. The description is as above. The note with it: source organism: Entamoeba histolytica HM-1:IMSS.
For assay [16], the target named is HLA-A*02:01. The description is as above. The note with it: source organism: Entamoeba histolytica HM-1:IMSS.
For a further assay, the target named is HLA-A*80:01. The description is as above. The note with it: source organism: Entamoeba histolytica HM-1:IMSS.
Another assay concerns the target HLA-B*51:01. The description is as above. To be noted: source organism: Entamoeba histolytica HM-1:IMSS.
Assay [17] concerns the target HLA-A*69:01. The description is as above. The note with it: source organism: Entamoeba histolytica HM-1:IMSS.
The target in assay [18] is HLA-A*02:19. The assay is described as above. To be noted: source organism: Entamoeba histolytica HM-1:IMSS.
The next assay has as its target HLA-A*68:02. The assay is described as above. The note with it: source organism: Entamoeba histolytica HM-1:IMSS.
A further assay concerns the target HLA-B*18:01. The assay is described as above. The note with it: source organism: Entamoeba histolytica HM-1:IMSS.
For the next assay, the target named is HLA-A*24:03. The description is as above. The note with it: source organism: Entamoeba histolytica HM-1:IMSS.
Assay [19] deals with HLA-A*03:01. The assay is described as above. The note with it: source organism: Entamoeba histolytica HM-1:IMSS.
The target of a further assay is HLA-B*39:01. The assay is described as above. The note with it: source organism: Entamoeba histolytica HM-1:IMSS.
Another assay has as its target HLA-B*15:17. Described as above. To be noted: source organism: Entamoeba histolytica HM-1:IMSS.
The target in assay [20] is HLA-A*31:01. Kind of assay: IEDB peptide-MHC binding, purified MHC/competitive/fluorescence; ≥ and ≤ were set here for values at or beyond the usual limits of such assays. The note with it: source organism: Homo sapiens.

What is called Kd is the constant that tells how readily two partners part at equilibrium. Turning to FLPPQIPVI, the Kd is at most 0.1 nM with HLA-A*02:50; at least 20 µM with HLA-B*58:01; at most 1 nM in the assay with HLA-A*02:12 [1]; at most 1 nM in the assay with HLA-A*02:03 [2]; at least 20 µM with HLA-B*44:02; at least 20 µM with HLA-A*11:01. Besides, the Kd was at least 20 µM with HLA-B*08:01; at most 1 nM with HLA-A*02:16 [3]; at least 20 µM in the assay with HLA-B*08:02; at least 20 µM with HLA-B*27:05; at least 20 µM in the assay with HLA-B*40:01; 477 nM with HLA-B*15:01 [4]. The Kd is at most 1 nM with HLA-A*02:11 [5]; 21.4 nM with HLA-A*02:01 [6]; 4.7 µM with HLA-A*69:01 [7]; 18 nM with HLA-A*02:19 [8]; at most 1 nM with HLA-A*02:06; at least 20 µM in the assay with HLA-A*01:01. The Kd in the assay with HLA-A*03:01 [9], with HLA-B*07:02 and in the assay with HLA-A*31:01 [10] was at least 20 µM throughout.

Consider LICYQIEYI, for which the Kd with HLA-A*02:12 [11], with HLA-A*02:03 [12], with HLA-A*02:16 [13], in the assay with HLA-B*46:01, with HLA-B*57:01 and with HLA-A*25:01 was at least 20 µM in each case. The dissociation constant (Kd) with HLA-A*29:02 is at least 20 µM; with HLA-A*23:01 it was at least 20 µM; with HLA-B*27:03 it was at least 20 µM; with HLA-A*26:01, at least 20 µM; with HLA-B*15:01 [14], at least 20 µM; with HLA-A*02:11 [15], 0.8 nM. Moreover, the equilibrium dissociation constant (Kd) in the assay with HLA-A*02:01 [16], with HLA-A*80:01, with HLA-B*51:01, with HLA-A*69:01 [17], with HLA-A*02:19 [18] and with HLA-A*68:02 was at least 20 µM in each case. In addition, the Kd with HLA-B*18:01, with HLA-A*24:03, with HLA-A*03:01 [19], with HLA-B*39:01 and with HLA-B*15:17 was at least 20 µM each time.

One may read the IC50 as the point on the concentration scale where inhibition reaches its midpoint. TMGTGTFGR: the IC50 in the assay with HLA-A*31:01 [20] came to 388 nM.
